Assay results from US20210269549A1, “ANTI-SAS1B ANTIBODIES, ASSOCIATED METHODS OF USE, AND COMPOSITIONS AND METHODS FOR DETECTING AND TREATING CANCER” (UNIVERSITY OF VIRGINIA PATENT FOUNDATION, priority 2015, published 2021).
Changes are numbered by the printed parent chain. Several values for one entry are separate records, joined by “and”; a condition that tells them apart may be missing. Equal entries are not always repeated. Entries after “also recorded” stand apart in the source; their conditions may differ.

T1: human SAS1B (Homo sapiens, UniProt Q6HA08)
T1 construct: made in house; host or cells: E. coli
T1 sequence (Q6HA08 24-431): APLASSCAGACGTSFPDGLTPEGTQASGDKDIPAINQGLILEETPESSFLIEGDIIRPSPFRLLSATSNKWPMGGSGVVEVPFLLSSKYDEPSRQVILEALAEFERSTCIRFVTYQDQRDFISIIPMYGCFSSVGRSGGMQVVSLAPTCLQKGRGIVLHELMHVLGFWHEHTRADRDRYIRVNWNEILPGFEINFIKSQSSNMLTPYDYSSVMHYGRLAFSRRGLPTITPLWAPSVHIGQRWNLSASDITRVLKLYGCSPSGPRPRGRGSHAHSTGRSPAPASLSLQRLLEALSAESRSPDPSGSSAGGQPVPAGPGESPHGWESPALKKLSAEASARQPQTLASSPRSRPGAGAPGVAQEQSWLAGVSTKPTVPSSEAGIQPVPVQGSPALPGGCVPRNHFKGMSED

T2: full-length SAS1B splice variant A polypeptide (Homo sapiens, UniProt Q6HA08)
T2 construct: made in house
T2 sequence (Q6HA08 24-431): T1 sequence (Q6HA08 24-431)

T3: human SAS1B protein with a C-terminal V5 tag expressed by HEK293T cells (Homo sapiens, UniProt Q6HA08)
T3 construct: expressed in transfected cells; host or cells: HEK293T
T3 sequence (Q6HA08 24-431): T1 sequence (Q6HA08 24-431)

B1: SB2: mouse anti-human SAS1B monoclonal antibody, IgG2b; VH SEQ ID NO:14, VL SEQ ID NO:15 (antibody, listed as Mus musculus, V domains shown)
VH: EVQLQQSGPELVKPGSSVKISCKASGYTFTDYNMVWVKQSHGKSLEWIGAVNPNNGGTSYNQKFKGKATLTVDKSSSTAYMELRSLTSEDSAVYYCVPNWDWFAYWGQGTLVTVSA
VL: DVLMTQTPLSLPVSLGDQASISCRSSQSLVHSNGNTYLEWYLQKPGQSPNLLIYKVSNRFSGVPDRFSGSGSGTDFTLKISRVEAEDLGVYYCFQGSHVPFTFGSGTKLEIK
B2: SB3: mouse anti-human SAS1B monoclonal antibody, IgG2b; VH SEQ ID NO:14, VL SEQ ID NO:15 (antibody, listed as Mus musculus, V domains shown)
VH: B1 VH
VL: B1 VL
B3: SB4: mouse anti-human SAS1B monoclonal antibody, IgG2a; VH SEQ ID NO:16, VL SEQ ID NO:17 (antibody, listed as Mus musculus, V domains shown)
VH: B1 VH with A24P, V37M, V51I, S59T, V97A
VL: B1 VL with L29I, V30L, N50K
B4: SB5: mouse anti-human SAS1B monoclonal antibody, IgG2b; VH SEQ ID NO:16, VL SEQ ID NO:18 (antibody, listed as Mus musculus, V domains shown)
VH: B1 VH with A24P, V37M, V51I, S59T, V97A
VL: B1 VL with T7I, L29I, V30L, N50K
B5: SB1: mouse anti-SAS1B monoclonal antibody, IgG2a; VH SEQ ID NO:12, VL SEQ ID NO:13 (antibody, listed as Mus musculus, V domains shown)
VH: EVQLQQSGPELVKPGSSVKISCKASGYTFTDYNMDWVKQSHGKSLEWIGAINPNNGGTSYNQKFKGKATLTVDKSSSTAYMELRSLTSEDSAVYYCATNEYWGQGTTLTVSS
VL: NIVMTQSPKSMSMSVGERVTLSCKASENVGTYVSWYQQKPEQSPKLLIYGASNRYTGVPDRFTGSGSATDFTLTISSVQAEDLADYHCGQSYSYPWTFGGGTKLEIK

Molecular target: T1, human SAS1B
Assay: Western blot of human SAS1B probed with anti-human SAS1B murine mAbs
Format: binding
Conditions: not given
From the text: A western blot of human SAS1B and mouse SAS1B was probed with anti-human SAS1B murine monoclonal antibodies SB1, SB2, SB3, SB4, SB5, SB6, and SB7.

Molecule | Reactivity on western blot of human SAS1B and mouse SAS1B | Specificity in western blot for human SAS1B antigen in an E. coli protein background
B1 | specific to the human SAS1B only | demonstrated specificity
B2 | specific to the human SAS1B only | demonstrated specificity
B3 | specific to the human SAS1B only | demonstrated specificity
B4 | specific to the human SAS1B only | demonstrated specificity
B5 | reacts with both human and mouse SAS1B | demonstrated specificity

Same assay, conditions: Table 1

Molecule | Specifically binds human SAS1B (and not mouse SAS1B)
B1 | Yes
B2 | Yes
B3 | Yes
B4 | Yes

Molecular target: T2, full-length SAS1B splice variant A polypeptide
Assay: Western blot with mammalian cell-expressed recombinant SAS1B, full length
Format: binding
Conditions: not given
Description: SAS1B monoclonal antibodies were analyzed with mammalian cell-expressed recombinant SAS1B by western blotting.

Molecule | Reaction with full-length SAS1B splice variant A polypeptide
B1 | reacted with the full-length SAS1B splice variant A polypeptide
B2 | reacted with the full-length SAS1B splice variant A polypeptide
B3 | reacted with the full-length SAS1B splice variant A polypeptide
B4 | reacted with the full-length SAS1B splice variant A polypeptide
B5 | reacted with the full-length SAS1B splice variant A polypeptide

Molecular target: T3, human SAS1B protein with a C-terminal V5 tag expressed by HEK293T cells
Assay: Double immunofluorescence on fixed and permeabilized HEK293T cells transfected with SAS1B SV-A with V5 tag
Format: cell-based
Conditions: SV-A transfected HEK293T, PFA fixed, methanol permeabilized, mAbs at 10 ug/ml
Description: Experiments were conducted to determine the specificity of anti-human SAS1B monoclonal antibodies SB1, SB2, SB3, SB4, SB5, SB6 and SB7 against the human SAS1B protein with a C-terminal V5 tag expressed by HEK293T cells by double immuno-fluorescence from two different SAS1B epitopes. HEK293T cells were seeded at ˜100,000 per well of a 24 well plate containing a lysine-coated 12 mm coverslip. 24 hours later, the cells were transfected with 1 ug of SV-A plasmid with 2 ul of TURBOFECT® transfection reagent followed by no change of media. 48 h later the cells were PFA (paraformaldehyde) fixed and methanol permeabilized for an IF study as follows.
The cells were removed from cell culture media and fixed in 4% PFA in PBS, 300 ul for 15 min. The cells were washed in 1 ml PBS in wells for 3 times and permeabilized in methanol (100%) for 15 min in 0.5 ml at RT. The cells were washed in PBS 1 ml for 3 times and blocked in complete culture media (DMEM) with 5% normal goat serum (NGS) for 30 min (i.e. BB, blocking buffer). The first antibody in BB was added for 1 h at 10 ug/ml for mouse monoclonal antibodies (SB1, SB2, SB3, SB4, SB5, SB6, SB7) and 5 ug/ml for anti-V5 DYLIGHT® 488 (green) rabbit (a rabbit polyclonal antibody to V5 tag). The cells were washed in PBS 3 times. The second antibody in BB (Goat anti-mouse Alexa Flour 594, red) was added for 1 h at 5 ug/ml (1:200 dilution). The cells were washed in PBS 3 times. The cells were mounted in slow fade DAPI 3 ul and stored at 4° C. before confocal imaging.

Molecule | IF signal / colocalization with V5-tag epitope signal
B1 | colocalize (merge) with V5-tag epitope signal
B2 | colocalize (merge) with V5-tag epitope signal
B3 | colocalize (merge) with V5-tag epitope signal; also recorded: recognizing native SAS1B in fixed cells
B4 | colocalize (merge) with V5-tag epitope signal
B5 | lack of a signal

Same assay, conditions: mock transfected

Molecule | Signal on mock transfected HEK293T cells
B1 | no V5 signal or SAS1B signal
B2 | no V5 signal or SAS1B signal
B3 | no V5 signal or SAS1B signal
B4 | no V5 signal or SAS1B signal
B5 | no V5 signal or SAS1B signal

System: M1 (renal cancer cell line)
Assay: Live cell surface indirect immunofluorescence, M1
Format: cell-based
Conditions: live cells on ice; two cancer cell lines (M1, MMMT539)
Description: Anti-Human SAS1B mouse monoclonal antibodies reactive to SAS1B epitope on live cancer cell surfaces were identified by indirect immuno-fluorescence (IF) for the development of therapeutic antibodies. M1 (renal cancer cell line) and MMMT539 (uterine cancer cell line) cells were seeded at 20,000 cells in 1 ml per well on collagen coated coverslips in 24 well plates. The media was replaced 22 h post seeding. For antibody probing, cells were kept on ice for ˜8 to 18 min following 47 h post-seeding. The first antibody was added at 10 ug/ml, 20 ug/ml or 50 ug/ml in complete culture media with 15 mM NaN3 (pre-chilled), incubated on ice for 60 min, and the cells washed in complete culture media with 15 mM NaN3 in cold 1 ml, ×3. The second antibody, goat-antimouse-AF488 (pre-chilled), was added to the wells at 5 ug/ml in complete culture media with 15 mM NaN3 for 60 min on ice. The cells were washed in complete media with 15 mM NaN3, 1 ml, ×3 on ice. The cells were fixed in 4% PFA in PBS for 20 minutes on ice. The cells were washed in distilled water at RT, 1 ml, ×1 and mounted in 8 ul of SLOWFADE® Diamond Antifade Mountant with DAPI. An anti-EGFR monoclonal antibody was used as a positive control on live M1 cells. Epidermal growth factor receptor (EGFR) is a transmembrane glycoprotein and member of protein kinase superfamily. […] Anti-human CABYR monoclonal antibody 3A4 was used as a negative control on live MMMT539 cells. CABYR is a calcium binding cytoskeleton sperm protein with no transmembrane domain.

Molecule | Surface labelling of live cancer cells
B1 | labelled the surface
B2 | labelled the surface
B3 | labelled the surface
B4 | labelled the surface
B5 | labelled the surface

System: human uterine cancer cells
Assay: ADC assay on human uterine cancer cells using Fab-anti-mouse IgG Fc (Duocarmycin DM conjugated or unconjugated)
Format: cell-based
Conditions: 0.01 nM mAb, Fab-anti-mouse IgG Fc conjugated to Duocarmycin DM with cleavable linker, 4 days
Description: The cytotoxic effect of anti-human SAS1B monoclonal antibodies SB1, SB3 and SB4 on human uterine cancer cells was investigated by ADC assay using Fab-anti-mouse IgG Fc conjugated to Duocarmycin DM with a cleavable linker. An average of 3 experiments were done in triplicate. […] At 0.01 nM the viability was only 40% compared to ˜80% viability for SB4 mAb.
The cytotoxic effect of anti-human SAS1B mAbs SB1, SB2, SB3, SB4 and SB5 on human uterine cancer cells by ADC assay using unconjugated Fab-anti-mouse IgG Fc was examined. An average of 1 or 2 experiments in triplicate were performed. […] See FIGS. 10A-B. The cytotoxic effect of anti-human SAS1B mAbs SB1, SB2, SB3, SB4, and SB5 was tested on human uterine cancer cells by ADC assay using Fab-anti-mouse IgG Fc conjugated to Duocarmycin DM with cleavable linker. An average of 3 experiments were completed in triplicate. […] At 0.01 nM the viability for SB3, SB2, SB4 and SB5 were 42%, 66%, 80% and 87% respectively.

Molecule | Viability
B2 | 40% and 42%
B3 | ~80%

Same assay, conditions: Fab-anti-mouse IgG Fc conjugated to Duocarmycin DM with cleavable linker, 4 days

Molecule | Cytotoxic effect
B1 | strong cytotoxic effect at 0.1 nM and higher concentrations
B2 | strongest cytotoxic effect; also recorded: strong cytotoxic effect at 0.1 nM and higher concentrations
B3 | cytotoxic effect at 0.01, 0.1 nM and higher concentrations; also recorded: strong cytotoxic effect at 0.1 nM and higher concentrations
B4 | strong cytotoxic effect at 0.1 nM and higher concentrations
B5 | no cytotoxic effect

Same assay, conditions: isotype-specific unconjugated Fab, 4 days

Molecule | Cytotoxic effect
B1 | no cytotoxic effect
B2 | no cytotoxic effect
B3 | no cytotoxic effect
B4 | no cytotoxic effect
B5 | no cytotoxic effect

Same assay, conditions: uterine tumor cells in vitro

Molecule | Cell killing effects as antibody-duocarmycin conjugates on SAS1B+ human tumor cells (FIG. 28)
B1 | sub-nanomolar concentrations
B2 | sub-nanomolar concentrations
B3 | sub-nanomolar concentrations
B4 | sub-nanomolar concentrations
B5 | no cytotoxic effects
